From patent US20090252724A1 (Hoffmann-La Roche, published 2009)

What was measured:
Aβ1-40 fibers [1] = molecular target: T1, Aβ1-40 fibers (human); assay: SPR (Biacore), Aβ1-40 fibers on CM5, Scatchard; low affinity (monovalent) KD; experimental equilibrium responses
T1 construct: Synthetic peptide aggregated to fibers in vitro (200 µg/ml, 10 mM Na-acetate pH 4.0, 3 days, 37 °C) and coupled to a CM5 chip; also called Aβ1-40 fibrils; fibrillar Aβ40
Description: (§1) Binding of ANTIBODY A to fibrillar Aβ was measured online by surface plasmon resonance (SPR), and the affinities of the molecular interactions were determined as follows: Biacore2000 and Biacore3000 instruments were used for these measurements. Aβ1-40 and Aβ1-42 fibers were generated in vitro by incubation of synthetic peptides at a concentration of 200 μg/ml in 10 mM Na-acetate buffer (pH 4.0) for three days at 37° C. Electron microscopic analysis confirmed a fibrillar structure for both peptides, Aβ1-40 showing predominantly shorter (<1 micron) and Aβ1-42 predominantly longer (>1 micron) fibers. These fibers were assumed to represent aggregated Aβ peptides in human AD brain more closely than ill-defined mixtures of amorphous aggregates and unstructured precipitates. The fibers were diluted 1:10 and directly coupled to a CM5 as described in the Instruction Manual of the manufacturer (BIAapplication Handbook, version AB, Biacore AB, Uppsala, 1998).
(§2) This coupling procedure included an activation step, during which the carboxylic acid groups on the surface were transferred into chemically reactive succinimide ester groups by contacting the surface with an aqueous mixture of N-hydroxysuccinimide and 1-ethyl-1-(3-[…])-carbodiimide hydrochloride, and an immobilization step, during which the activated surface was contacted with the fibres dissolved in 10 mM acetate buffer (pH 4.5) at 200-350 resonance units (1 resonance unit (RU) corresponds approximately to a surface loading of 1 picogram/mm²). The fiber loaded surface was then contacted with the antibody solutions in the concentration range 200 nM≧C≧0.15 nM. Typical time dependent response curves (=sensograms) monitored during the association phase (during contact with buffer) and the dissociation phase (subsequent contact with buffer) are shown in FIG. 7.
(§3) Briefly, KD values were calculated by Scatchard type analysis using concentration dependent equilibrium binding responses. These equilibrium binding constants could be obtained in two ways.

Aβ1-40 fibers [2] = molecular target: T1, Aβ1-40 fibers; assay: SPR (Biacore), Aβ1-40 fibers on CM5, Scatchard; high affinity (bivalent) KD; extrapolated equilibrium responses; stdev 0.10
Description: (§4) Binding of ANTIBODY A to fibrillar Aβ was measured online by surface plasmon resonance (SPR), and the affinities of the molecular interactions were determined as follows: Biacore2000 and Biacore3000 instruments were used for these measurements. Aβ1-40 and Aβ1-42 fibers were generated in vitro by incubation of synthetic peptides at a concentration of 200 μg/ml in 10 mM Na-acetate buffer (pH 4.0) for three days at 37° C. Electron microscopic analysis confirmed a fibrillar structure for both peptides, Aβ1-40 showing predominantly shorter (<1 micron) and Aβ1-42 predominantly longer (>1 micron) fibers. […]
as §2, with “The fiber loaded surface was then contacted with the antibody solutions in the concentration range 200 nM≧C≧0.15 nM.” left out, “7. […]” for “7.”

Aβ1-40 fibers [3] = molecular target: T1, Aβ1-40 fibers; assay: SPR (Biacore), Aβ1-40 fibers on CM5, Scatchard; high affinity (bivalent) KD; experimental equilibrium responses
Description: as §1, §2, §3

Aβ1-40 fibers [4] = molecular target: T1, Aβ1-40 fibers; assay: SPR (Biacore), Aβ1-40 fibers on CM5, Scatchard; low affinity (monovalent) KD; extrapolated equilibrium responses; stdev 8.40
Description: as §4
as §2, with “The fiber loaded surface was then contacted with the antibody solutions in the concentration range 200 nM≧C≧0.15 nM.” left out, “7. […]” for “7.”

Aβ1-40 fibers [5] = molecular target: T1, Aβ1-40 fibers; assay: SPR (Biacore), Aβ1-40 fibers on CM5, Scatchard; low affinity (monovalent) KD; extrapolated equilibrium responses; stdev 0.15
Description: as §4
as §2, with “The fiber loaded surface was then contacted with the antibody solutions in the concentration range 200 nM≧C≧0.15 nM.” left out, “7. […]” for “7.”

Aβ1-40 fibers [6] = molecular target: T1, Aβ1-40 fibers; assay: SPR (Biacore), Aβ1-40 fibers on CM5, Scatchard; high affinity (bivalent) KD; extrapolated equilibrium responses; stdev 0.03
Description: as §4
as §2, with “The fiber loaded surface was then contacted with the antibody solutions in the concentration range 200 nM≧C≧0.15 nM.” left out, “7. […]” for “7.”

Aβ1-40 fibers [7] = molecular target: T1, Aβ1-40 fibers; assay: SPR (Biacore), Aβ1-40 fibers on CM5, Scatchard; high affinity (bivalent) KD; extrapolated equilibrium responses; stdev 0.02
Description: as §4
as §2, with “The fiber loaded surface was then contacted with the antibody solutions in the concentration range 200 nM≧C≧0.15 nM.” left out, “7. […]” for “7.”

Aβ1-40 fibers [8] = molecular target: T1, Aβ1-40 fibers; assay: SPR (Biacore), Aβ1-40 fibers on CM5, Scatchard; low affinity (monovalent) KD; extrapolated equilibrium responses; stdev 22.33
Description: as §4
as §2, with “The fiber loaded surface was then contacted with the antibody solutions in the concentration range 200 nM≧C≧0.15 nM.” left out, “7. […]” for “7.”

Kd (Aβ1-40 fibers [1])	Kd (Aβ1-40 fibers [2])	Kd (Aβ1-40 fibers [3])	Kd (Aβ1-40 fibers [4])	Kd (Aβ1-40 fibers [5])	Kd (Aβ1-40 fibers [6])	Kd (Aβ1-40 fibers [7])	Kd (Aβ1-40 fibers [8])	Binder
21 nM	0.49 nM	0.41 nM	27.2 nM					ANTIBODY A COMPOSITION (mixture of mono- and double-glycosylated ANTIBODY A) (antibody, human IgG1, kappa, V domains shown, N-linked glycan at Asn52 (VH CDR2) on one or on both heavy chains (mixture of the two isoforms); N-linked glycan at Asn306 (Fc), also called Mixture of mono- and double-glycosylated ANTIBODY A isoforms (1:1)) VH: QVELVESGGGLVQPGGSLRLSCAASGFTFSSYAMSWVRQAPGKGLEWVSAINASGTRTYYADSVKGRFTISRDNSKNTLYLQMNSLRAEDTAVYYCARGKGNTHKPYGYVRYFDVWGQGTLVTVSS VL: DIVLTQSPATLSLSPGERATLSCRASQSVSSSYLAWYQQKPGQAPRLLIYGASSRATGVPARFSGSGSGTDFTLTISSLEPEDFATYYCLQIYNMPITFGQGTKVEIKR
2.82 nM		0.42 nM		1.99 nM	0.19 nM			non-glycosylated ANTIBODY A (antibody, human IgG1, kappa, V domains shown, Asn52 not glycosylated; N-linked glycan at Asn306 (Fc), Human IgG1 kappa, made in CHO cells; no glycan in the variable region; also called non-glycosylated ANTIBODY A isoform; non-glycosylated isoform) VH: QVELVESGGGLVQPGGSLRLSCAASGFTFSSYAMSWVRQAPGKGLEWVSAINASGTRTYYADSVKGRFTISRDNSKNTLYLQMNSLRAEDTAVYYCARGKGNTHKPYGYVRYFDVWGQGTLVTVSS VL: DIVLTQSPATLSLSPGERATLSCRASQSVSSSYLAWYQQKPGQAPRLLIYGASSRATGVPARFSGSGSGTDFTLTISSLEPEDFATYYCLQIYNMPITFGQGTKVEIKR
29 nM		1.54 nM				1.43 nM	18.5 nM	double-glycosylated ANTIBODY A (antibody, human IgG1, kappa, V domains shown, N-linked glycan at Asn52 (VH CDR2) on both heavy chains; N-linked glycan at Asn306 (Fc), Human IgG1 kappa, made in CHO cells, separated by cation exchange chromatography; also called double-glycosylated ANTIBODY A isoform; double-glycosylated isoform) VH: QVELVESGGGLVQPGGSLRLSCAASGFTFSSYAMSWVRQAPGKGLEWVSAINASGTRTYYADSVKGRFTISRDNSKNTLYLQMNSLRAEDTAVYYCARGKGNTHKPYGYVRYFDVWGQGTLVTVSS VL: DIVLTQSPATLSLSPGERATLSCRASQSVSSSYLAWYQQKPGQAPRLLIYGASSRATGVPARFSGSGSGTDFTLTISSLEPEDFATYYCLQIYNMPITFGQGTKVEIKR
